The text below walks through data of publication PMC4481117, “The opioid peptide dynorphin A induces leukocyte responses via integrin Mac-1 (αMβ2, CD11b/CD18)” (Molecular Pain, 2015).

For experiment [1], the target named is T1, 125I-labeled αMI-domain, active form (αM Glu123-Lys315) (UniProt P11215 139-331, 125I label).
T1 construct: also called recombinant αMI-domain; α7 helix-truncated αMI-domain
In words: peptide or protein array; 9-mer peptides on cellulose membrane (SPOT synthesis), blocked with 1 % BSA, incubated with 10 μg/ml 125I-labeled αMI-domain in TBS with 1 mM MgCl2; autoradiography and densitometry. The conditions noted are these: both partners purified.

Experiment [2] addresses integrin Mac-1 on IC-21 murine macrophages (mouse (endogenous in IC-21), UniProt P05555 17-1153; P11835 24-771). Nature of the experiment: cell-based or functional assay.

cellulose = cellulose membrane support; βAla = NCCC(=O)O

T1 sequence (P11215 139-331): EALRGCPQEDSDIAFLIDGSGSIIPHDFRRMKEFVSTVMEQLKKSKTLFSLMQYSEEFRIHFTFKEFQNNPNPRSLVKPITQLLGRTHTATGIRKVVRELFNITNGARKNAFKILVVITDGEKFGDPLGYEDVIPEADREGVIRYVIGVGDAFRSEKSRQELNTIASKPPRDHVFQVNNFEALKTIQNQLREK
Sequence of integrin Mac-1 on IC-21 murine macrophages (P05555 17-1153, chain 1 of 2): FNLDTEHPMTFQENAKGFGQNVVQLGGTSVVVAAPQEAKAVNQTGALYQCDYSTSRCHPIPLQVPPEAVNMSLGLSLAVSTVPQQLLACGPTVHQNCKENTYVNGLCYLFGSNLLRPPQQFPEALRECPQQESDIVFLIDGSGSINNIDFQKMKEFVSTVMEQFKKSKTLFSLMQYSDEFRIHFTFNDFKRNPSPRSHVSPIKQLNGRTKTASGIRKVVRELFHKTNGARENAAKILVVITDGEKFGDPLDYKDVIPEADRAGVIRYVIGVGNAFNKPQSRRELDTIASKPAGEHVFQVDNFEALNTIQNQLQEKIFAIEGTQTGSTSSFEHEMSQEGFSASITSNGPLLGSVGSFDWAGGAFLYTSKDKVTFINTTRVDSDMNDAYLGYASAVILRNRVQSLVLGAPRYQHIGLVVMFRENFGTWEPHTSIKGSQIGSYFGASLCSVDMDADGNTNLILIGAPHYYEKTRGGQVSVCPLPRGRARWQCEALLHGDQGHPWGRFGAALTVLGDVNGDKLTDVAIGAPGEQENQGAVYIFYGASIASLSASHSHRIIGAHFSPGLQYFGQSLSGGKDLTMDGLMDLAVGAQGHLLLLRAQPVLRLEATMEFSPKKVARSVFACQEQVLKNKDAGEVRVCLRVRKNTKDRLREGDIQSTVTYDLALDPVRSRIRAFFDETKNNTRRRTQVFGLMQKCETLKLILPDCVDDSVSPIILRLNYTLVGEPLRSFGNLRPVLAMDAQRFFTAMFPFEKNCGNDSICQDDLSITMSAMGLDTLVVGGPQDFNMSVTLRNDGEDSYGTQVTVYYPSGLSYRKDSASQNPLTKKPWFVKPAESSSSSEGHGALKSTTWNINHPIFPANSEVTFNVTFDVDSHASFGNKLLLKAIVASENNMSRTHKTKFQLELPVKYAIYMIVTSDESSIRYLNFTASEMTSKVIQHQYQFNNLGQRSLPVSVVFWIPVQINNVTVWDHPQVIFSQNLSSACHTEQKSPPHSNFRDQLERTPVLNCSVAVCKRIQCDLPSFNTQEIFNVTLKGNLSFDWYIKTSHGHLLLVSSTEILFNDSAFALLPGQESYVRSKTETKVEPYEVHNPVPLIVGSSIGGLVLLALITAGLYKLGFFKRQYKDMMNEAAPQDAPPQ
Sequence of integrin Mac-1 on IC-21 murine macrophages (P11835 24-771, chain 2 of 2): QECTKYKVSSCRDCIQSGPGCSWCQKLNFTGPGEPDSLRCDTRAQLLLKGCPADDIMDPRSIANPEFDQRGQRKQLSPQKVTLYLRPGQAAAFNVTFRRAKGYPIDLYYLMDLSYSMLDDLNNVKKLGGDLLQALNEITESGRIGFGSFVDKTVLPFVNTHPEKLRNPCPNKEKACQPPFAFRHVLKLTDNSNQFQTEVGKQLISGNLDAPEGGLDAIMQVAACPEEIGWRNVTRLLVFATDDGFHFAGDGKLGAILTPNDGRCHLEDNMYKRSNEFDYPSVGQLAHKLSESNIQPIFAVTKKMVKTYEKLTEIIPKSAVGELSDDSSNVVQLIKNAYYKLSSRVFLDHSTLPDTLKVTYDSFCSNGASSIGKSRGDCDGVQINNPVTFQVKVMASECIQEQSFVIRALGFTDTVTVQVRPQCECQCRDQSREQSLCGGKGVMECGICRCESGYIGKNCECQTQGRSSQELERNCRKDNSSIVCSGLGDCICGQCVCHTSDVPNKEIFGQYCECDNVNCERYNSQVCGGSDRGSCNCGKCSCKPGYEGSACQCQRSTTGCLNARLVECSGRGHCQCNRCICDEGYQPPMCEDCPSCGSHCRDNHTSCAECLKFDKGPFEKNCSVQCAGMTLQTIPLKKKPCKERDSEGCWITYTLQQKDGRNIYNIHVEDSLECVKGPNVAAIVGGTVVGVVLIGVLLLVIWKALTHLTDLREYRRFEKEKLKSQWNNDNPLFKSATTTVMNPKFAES

B1: dynorphin AB library peptide, spot 2 (FLRRIRPKL) (peptide)
peptide: Ac-FLRRIRPKL-{βAla-βAla-cellulose}
notes: 9-mer of dynorphin AB; source: synthetic peptide, parallel spot synthesis on cellulose membrane
Regarding B1, the binding result in experiment [1] is “binds”.

As for YGGFLRRIRPKLKWDNQ [dynorphin A], the “phagocytosis of Dyn A-treated fluorescent latex beads by IC-21 murine macrophages, against control beads” value in experiment [2] was around 10 fold.

B2: dynorphin AB library peptide, spot 1 (YGGFLRRIR) (peptide)
peptide: Ac-YGGFLRRIR-{βAla-βAla-cellulose}
notes: 9-mer of dynorphin AB; also called peptide #1; source: synthetic peptide, parallel spot synthesis on cellulose membrane
With B2, in experiment [1], the binding result is “binds”.
